Assay results from US20200157212A1 (Pfizer, published 2020).
Positions count from the first letter of the chain named. Read-outs that look alike come from different tables or passages of the source.

T1: Human ROBO2 KSR mutant overexpressed on HEK293 cells (human, UniProt Q9HCK4 22-1378)
T1 construct: R100K and K102R already in the entry
T1 sequence: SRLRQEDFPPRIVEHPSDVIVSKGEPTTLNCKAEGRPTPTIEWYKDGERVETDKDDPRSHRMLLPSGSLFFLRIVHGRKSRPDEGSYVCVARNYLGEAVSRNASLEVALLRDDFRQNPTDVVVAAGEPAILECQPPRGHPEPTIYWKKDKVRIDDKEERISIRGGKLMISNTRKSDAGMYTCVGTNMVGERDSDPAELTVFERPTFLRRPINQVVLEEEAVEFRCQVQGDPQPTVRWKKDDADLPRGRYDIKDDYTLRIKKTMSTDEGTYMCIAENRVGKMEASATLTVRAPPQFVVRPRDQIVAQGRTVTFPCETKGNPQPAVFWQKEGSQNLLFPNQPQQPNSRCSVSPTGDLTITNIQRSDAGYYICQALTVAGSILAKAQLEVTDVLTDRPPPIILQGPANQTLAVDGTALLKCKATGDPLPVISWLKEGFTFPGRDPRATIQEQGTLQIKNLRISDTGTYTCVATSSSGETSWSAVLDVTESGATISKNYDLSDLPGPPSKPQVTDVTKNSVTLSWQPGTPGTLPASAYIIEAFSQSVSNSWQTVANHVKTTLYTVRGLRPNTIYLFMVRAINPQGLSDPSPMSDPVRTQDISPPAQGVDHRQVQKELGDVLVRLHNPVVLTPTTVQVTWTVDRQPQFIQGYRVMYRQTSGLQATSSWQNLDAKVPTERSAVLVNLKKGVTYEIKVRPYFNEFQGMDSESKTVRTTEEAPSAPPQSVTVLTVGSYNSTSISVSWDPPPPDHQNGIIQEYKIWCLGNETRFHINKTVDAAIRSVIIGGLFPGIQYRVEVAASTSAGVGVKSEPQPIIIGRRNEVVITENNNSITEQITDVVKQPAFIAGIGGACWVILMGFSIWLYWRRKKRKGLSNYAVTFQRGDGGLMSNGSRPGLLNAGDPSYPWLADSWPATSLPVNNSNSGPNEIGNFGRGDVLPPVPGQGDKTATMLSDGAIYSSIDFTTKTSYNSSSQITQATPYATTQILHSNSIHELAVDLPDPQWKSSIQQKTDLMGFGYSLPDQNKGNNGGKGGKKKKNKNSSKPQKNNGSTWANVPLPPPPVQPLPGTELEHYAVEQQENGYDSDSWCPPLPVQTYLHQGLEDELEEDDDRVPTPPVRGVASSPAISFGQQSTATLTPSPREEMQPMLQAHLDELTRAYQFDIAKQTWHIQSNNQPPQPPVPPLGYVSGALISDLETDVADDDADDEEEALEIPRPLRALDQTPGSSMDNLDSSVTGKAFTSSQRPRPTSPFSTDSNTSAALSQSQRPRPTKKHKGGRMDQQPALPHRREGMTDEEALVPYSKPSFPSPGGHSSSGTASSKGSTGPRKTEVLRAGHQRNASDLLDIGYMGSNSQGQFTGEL

T2: Human ROBO2 Ig1-Ig2-His (human, UniProt Q9HCK4 31-220)
T2 construct: the His tag is named only in the SPR paragraphs; the Octet and ELISA paragraphs print 'ROBO2 Ig1-Ig2' without a tag; also called ROBO2 Ig1-2; Human ROBO2 Ig 1,2
T2 sequence: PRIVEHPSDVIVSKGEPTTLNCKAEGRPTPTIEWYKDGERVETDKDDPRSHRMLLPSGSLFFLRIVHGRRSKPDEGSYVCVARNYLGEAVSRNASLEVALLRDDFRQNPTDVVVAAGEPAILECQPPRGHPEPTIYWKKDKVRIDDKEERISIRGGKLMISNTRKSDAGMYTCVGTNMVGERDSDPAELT

B1: Abcs35 (antibody, human IgG1, kappa)
heavy: EVQLVQSGAEVKKPGASVKVSCKASGYTFTGYYMHWVRQAPGQGLEWMGWINPKNGDTEFPQKFQGRVTMTRDTSITTAYMDLSRLRSDDTAVYYCARESGDDAFDIWGQGTMVTVSSASTKGPSVFPLAPSSKSTSGGTAALGCLVKDYFPEPVTVSWNSGALTSGVHTFPAVLQSSGLYSLSSVVTVPSSSLGTQTYICNVNHKPSNTKVDKKVEPKSCDKTHTCPPCPAPEAAGAPSVFLFPPKPKDTLMISRTPEVTCVVVDVSHEDPEVKFNWYVDGVEVHNAKTKPREEQYNSTYRVVSVLTVLHQDWLNGKEYKCKVSNKALPAPIEKTISKAKGQPREPQVYTLPPSREEMTKNQVSLTCLVKGFYPSDIAVEWESNGQPENNYKTTPPVLDSDGSFFLYSKLTVDKSRWQQGNVFSCSVMHEALHNHYTQKSLSLSPGK
light: DIVMTQSPSSLSASVGDRVTITCRASQSISSYLNWYQQKPGKAPKLLIYAASSLQSGVPSRFSGSGSGTDFTLTISSLQPEDFATYYCQQSVGLFFGGGTKVEIKRTVAAPSVFIFPPSDEQLKSGTASVVCLLNNFYPREAKVQWKVDNALQSGNSQESVTEQDSKDSTYSLSSTLTLSKADYEKHKVYACEVTHQGLSSPVTKSFNRGEC
notes: fully human IgG1; VH of Ab96 with VL of Ab123
B2: Abcs35-J (antibody, human IgG1, kappa)
heavy: B1 heavy with D82E
light: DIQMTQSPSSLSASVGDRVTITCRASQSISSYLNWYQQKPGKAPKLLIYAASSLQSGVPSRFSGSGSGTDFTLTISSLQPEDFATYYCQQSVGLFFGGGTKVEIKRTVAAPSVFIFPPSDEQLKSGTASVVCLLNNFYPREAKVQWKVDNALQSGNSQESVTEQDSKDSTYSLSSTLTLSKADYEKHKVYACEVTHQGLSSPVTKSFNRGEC
notes: germlined variant of Abcs35; also called ABCS-J

Columns and labels:
[1] = target: T1, Human ROBO2 KSR mutant overexpressed on …; assay: flow cytometry on HEK293 cells overexpressing the ROBO2-KSR mutant
Protocol: Binding of the antibodies was detected using a secondary fluorochrome conjugated anti-human IgG F(ab′)₂ antibody and samples were analyzed on a Fortessa cytometer (BD Biosciences). The fold ROBO2 selectivity was calculated as the geometric mean fluorescence intensity (Geo MFI) with ROBO2 cells/Geo MFI with ROBO1 cells. A fold change higher than 3 was considered to be ROBO2 specific (Table 2, Fold Selectivity). Some affinity matured clones had increased ROBO1 reactivity, for example Abcs 55, CTI-R2-10 and CTIR2-13.
Based upon several criteria, Abcs25 and Abcs35 were selected for further characterization. Using flow cytometry, improvement in the binding EC₅₀ to human ROBO2 relative to the parental 93H2 was evaluated. […] Using HEK293 cells overexpressing either cynomolgus monkey ROBO2 or rat ROBO2, the relative dose-dependent binding of 93H2, Abcs25 and Abcs35 was evaluated as described above. […] Association of ROBO2 Ig1-Ig2-His (ROBO2) was measured over 5 minutes and dissociation was followed for a period of 10 minutes.
RSK specificity for Abcs35, along with 93H2 and Abcs25, also was confirmed in a cell-based binding assay using flow cytometry. […] As described above in Example 3, dose-dependent binding was evaluated.

Human ROBO2 Ig1-Ig2-His = target: T2, Human ROBO2 Ig1-Ig2-His; assay: Octet method and SPR method
[2] = target: T1, Human ROBO2 KSR mutant overexpressed on …; assay: flow cytometry on HEK293 cells overexpressing the ROBO2-KSR mutant; remark: listed apart in the source
Protocol: The binding profile of Abcs35-J compared to Abcs35 was determined for human ROBO2, orthologs from cynomolgus monkey and rat, human ROBO1 and specificity for the RSK epitope from ROBO2 but not KSR from ROBO1. Binding was assessed by flow cytometry as described in Examples 2 (homolog specificity), Example 3 (ortholog reactivity) and Example 5 (RSK vs KSR epitope specificity). […] Binding of the antibodies was detected using a secondary fluorochrome conjugated anti-human IgG F(ab′)₂ antibody and samples analyzed on a Fortessa cytometer (BD Biosciences). […] FIGS. 16A-16F depicts binding profiles of Abcs35 (black circles) or Abcs35-J (grey squares) to human ROBO2 (FIG. 16A), cynomolgus monkey ROBO2 (FIG. 16B), rat ROBO2 (FIG. 16C), human ROBO1 (FIG. 16D), ROBO1 containing the ROBO2 RSK epitope (FIG. 16E) or ROBO2 containing the ROBO1 KSR epitope (FIG. 16 F).

Binder | binding result [1] | Kd (Human ROBO2 Ig1-Ig2-His) [nM] | binding result [2]
B1 | no binding | 0.279 | –
B2 | – | – | no binding (tested: last point just below 10^1 nM)
